Data from publication PMC12412624, “Engineered Cas12j‐8 is a Versatile Platform for Multiplexed Genome Modulation in Mammalian Cells”.
Numbering of substitutions follows the chain as printed.

Legend:
[1] = system: T1, dCas12j-8 E258R+D313R+D495R E258R;D313R;D495R;D369A;E567A;D658A (bacteriophage (metagenome)); details: HEK293T cells; panel 1e (compare within a panel only); scale: mean GFP / mean GFP of wild type, printed, no background subtraction
T1 sequence: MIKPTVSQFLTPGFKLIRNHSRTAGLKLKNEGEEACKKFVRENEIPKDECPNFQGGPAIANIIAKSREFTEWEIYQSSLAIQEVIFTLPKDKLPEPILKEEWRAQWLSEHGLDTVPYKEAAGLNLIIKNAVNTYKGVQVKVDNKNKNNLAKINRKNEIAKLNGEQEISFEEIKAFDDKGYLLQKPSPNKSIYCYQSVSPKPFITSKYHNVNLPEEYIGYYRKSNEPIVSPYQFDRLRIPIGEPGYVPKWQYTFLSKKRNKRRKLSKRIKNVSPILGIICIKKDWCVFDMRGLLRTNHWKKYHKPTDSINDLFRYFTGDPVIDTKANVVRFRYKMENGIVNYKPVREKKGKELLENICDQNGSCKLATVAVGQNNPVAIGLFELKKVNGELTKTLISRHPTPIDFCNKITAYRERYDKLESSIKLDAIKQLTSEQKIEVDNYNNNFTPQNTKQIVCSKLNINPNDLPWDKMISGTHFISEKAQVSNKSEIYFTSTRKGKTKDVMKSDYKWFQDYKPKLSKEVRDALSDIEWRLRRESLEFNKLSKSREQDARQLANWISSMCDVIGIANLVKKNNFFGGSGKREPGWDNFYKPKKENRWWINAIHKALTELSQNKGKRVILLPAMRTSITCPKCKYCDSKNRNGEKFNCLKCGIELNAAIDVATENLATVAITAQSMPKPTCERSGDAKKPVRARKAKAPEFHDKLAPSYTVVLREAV

[2] = system: T2, dCas12j-8 E258R+D527R E258R;D527R;D369A;E567A;D658A (bacteriophage (metagenome)); details: HEK293T cells; panel 1d (compare within a panel only); scale: mean GFP / mean GFP of wild type, printed, no background subtraction
T2 sequence: T1 sequence with R313D, R495D, D527R

[3] = system: T3, dCas12j-8 E258R+D313R+D527R E258R;D313R;D527R;D369A;E567A;D658A (bacteriophage (metagenome)); details: HEK293T cells; panel 1e (compare within a panel only); scale: mean GFP / mean GFP of wild type, printed, no background subtraction
T3 sequence: T1 sequence with R495D, D527R

[4] = system: T4, dCas12j-8 E258R+D495R+E547R E258R;D495R;E547R;D369A;E567A;D658A (bacteriophage (metagenome)); details: HEK293T cells; panel 1e (compare within a panel only); scale: mean GFP / mean GFP of wild type, printed, no background subtraction
T4 sequence: T1 sequence with R313D, E547R

CUUUCAAGACUAAUAGAUUGCUCCUUACGAGGAGACACUCCCUAUCAGUGAUAGAG / TTNACTCCCTATCAGTGATAGAG / CTCTATCACTGATAGGGAGTNAA [TetO]
binding signal [1]: 4.66
binding signal [2]: 2.83
binding signal [3]: 5.09
binding signal [4]: 4.13
